assay: label from the status in PepcDB records
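Note: failed if final PepcDB status was selected cloned or expressed and not failed if soluble or beyond.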

| Sequence | protein production |
| --- | --- |
| MIVFVRFNSSYGFPVEVDSDTSIFQLKEVVAKRQGVPADQLRVIFAGKELQNHLTVQNCDLEQQSIVHIVQRPQRKSHETNASGGDKPQSTPEGSIWEPRSLTRVDLSSHILPADSVGLAVILDTDSKSDSEAARGPAAKPTYHSFFVYCKGPCHKVQPGKLRVQCGTCRQATLTLAQGPSCWDDVLIPNRMSGECQSPDCPGTRAEFFFKCGAHPTSDKDTSVALNLITNNSRSIPCIACTDVRNPVLVFQCNHRHVICLDCFHLYCVTRLNDRQFVHDAQLGYSLPCVAGCPNSLIKELHHFRILGEEQYNRYQQYGAEECVLQMGGVLCPRPGCGAGLLPEQGQRKVTCEGGNGLGCGFVFCRDCKEAYHEGECDSMFEASGATSQAYRVDQRAAEQARWEEASKETIKKTTKPCPRCNVPIEKNGGCMHMKCPQPQCKLEWCWNCGCEWNRACMGDHWFDV | failed |
| MIVFYDSWCPMCTAVAERTKKLDKKGKVKFVSFRDEDVVEKYELSQELQSKMEQRLYIFKNNKWYDGIHSIHVLAKSIPSYWFAVPFIKLSIVLGFGNKVYDYIANNRKLVPVGHCRGGVCEIPTKK | failed |
| MIVGGRRAPLPRFFSRPVEFAALSLDPEKDPIDVFDDAYFFVHAAFSHVPGKYRGGEGDDPKSFHRLNLDGTVRLFEAAKRAGTRRCVFLSSRAAYGDYPPGIELVETMLPKPETLYGQIKLDAEGALTHLSAPGFAGVSLRATGVYGDLTPGKWDDLIADYLAGRPVAARAGTEVHGRDLGRAVRLMLETESTRISGEVFNISDITVDTQDILAPIRRETSGPHALPPPADKAALNPMSTAKIRALGWMPGGTPLFEETMRRLAAALPVSPRHRSAQDRQASSSGGRQPQTGTT | failed |
| MIVGRDGVGVVEHAEQGPRIAVAVVTMGNRPAEVDALLASVAKQDLPPARIVIVGNGCPLPEFARRLDLPGEVTGIEVDENLGCPGGRNVALAKLREFGDVDVVVELDDDGLLVDADVLRRVRDLYAADPRLGIVGFRIADENGETQRRHVPRVGKSDPLRGGPVTGFLGGGHALSMAMLARTGDWPAEFFFAHEETDLAWRATDAGWTILYAPELLLQHPKTSPARHAIYHRVTARNRVWLARRRLPLPLIPVHLGIWIAVTLVRTRSAGGLRAWFGGFMEGVRTSGGERRPMRWRTVWRLTRLGRPPVILEHHHHHH | failed |
| MIYPDETMLYAPVEWHDCSEGYTDIRYEKSTDGIAKITINRPQVRNAFRPLTVKEMIQALADARYDDNVGVIILTGEGDKAFCAGGDQKVRGDYGGYQDDSGVHHLNVLDFQRQIRTCPKPVVAMVAGYSIGGGHVLHMMCDLTIAAENAIFGQTGPKVGSFDGGWGASYMARIVGQKKAREIWFLCRQYDAQQALDMGLVNTVVPLADLEKETVRWCREMLQNSPMALRCLKAALNADCDGQAGLQELAGNATMLFYMTEEGQEGRNAFNQKRQPDFSKFKRNP | not failed |
| MIYWLSLASAAFIGLAALVWKMSAIARENRVLKAEFSLGRLKKELNVFFISDIHRRTVSEDIICEVKERGVQLVIIGGDLAEGGVPYTRIEENIKRLSSLGKTYFVWGNNDYEVDQERLLEIFKTYGVTPLRNASVLHDHQGQTVNICGVDDIRLELDDYPAALGGVQPGFPTVLVSHNPEIHHQIQEADGIDLILSGHTHGGQIRFGRFGLCEIGGTGTVFKAPYLISNGYGTSKLPLRLGARPETHLINLVPGPRMEGN | failed |
| MIYYGTMFDHKVRFSIVRMREVVEEARNRHALSYLATVVLGRALIGAALVTPWLAEKERWTLDIEGNGPIRRVVAQSTSEFTVRGYVANPKVELPLNEKGKFDVAGAIGQGVLRVVRDLGLKTPFVSQVPLVSGEIAEDLAYYFAVSEQIPSAFSIGVLVDSDGVKIAGGFAVQIIDRTLEQEKVEMIEKNIKNLPSISKLFQEAEPLDVLERIFGEKVGFVETAEIKYKCDCNREKAKNALLVLDKKELEDMRKEGKGEVVCKWCNTRYVFSEEELEELLKFKVDDSGS | not failed |
| MKADKWNHVETARYFRDLQENEVRTMHYLGLAYVVLSRRPNLQLKVPLSTQNYEDGAIVGAGERGGYALQLLFTCAANYPLARPLVEIVEKRNVSDAFEQVLRKEIDLILEEHLGLQMIVPVVTRLQITLNTEMKR | not failed |
| MKAELIAVGTEILTGQIVNTNAQFLSEKMAELGIDVYFQTAVGDNEERLLSVITTASQRSNLVILCGGLGPTKDDLTKQTLAKYLRKDLVYDEQACQKLDDFFAKRKPSSRTPNNERQAQVIEGSIPLPNKTGLAVGGFITVDGISYVVLPGPPSELKPMVNEELVPLLSKQYSTLYSKVLRFFGIGESQLVTVLSDFIENQTDPTIAPYAKTGEVTLRLSTKTE | failed |
| MKAGIHPDYKKVVFMDTNTGFKFLSGSTKGSNETVEWEDGNTYPLLKVEISSDSHPFYTGRQKFATADGRVDRFNKKYGLK | failed |
| MKAIILAGGHSVRFGKPKAFAEVNGETFYSRVIKTLESTNMFNEIIISTNAQLATQFKYPNVVIDDENHNDKGPLAGIYTIMKQHPEEELFFVVSVDTPMITGKAVSTLYQFLVSHLIENHLDVAAFKEDGRFIPTIAFYSPNALGAITKALHSDNYSFKNIYHELSTDYLDVRDVDAPSYWYKNINYQHDLDALIQKLLEHHHHHH | not failed |
| MKAKHLTQLLKASFLSCSMIATTLSMAQLPPAPQEKYGDGRVSEFYTWKSAIPAQPGKLLRTEAVHNPYIRLANDSQAIRILYSSTSGKDSKTPIVVSGSIHLPKGNPPKEGWPVVLWAHGTVGLADACAPSWSGRSYRDVQYLNRWLNEGFAVVATDYEGLGVAGPHLLINNPMLAYSILDSGRAALKTKLPLANKFVIVGQSQGGAGAVAASSYSATYAPDLNIKGSIGTGVIYKDPEATPEKNQLKLNPYEVSPSLAYGIYSFLVTQSLYPEIKTEEIFTPEAAPLVEQARNACLTSFMGDIQTAGLSPAQAYKPNPPTSYKKLQEKESNDYGYYPTLKISHPLFIGTGANDRTPDARSQMKLVADACKAGTVVEGHLYHGLGHSETVNASLKDSIPFAKKVIAGEKIQAICKPDLQ | failed |
| MKALLPGLYLLPVPIPYPLKTVNLYLLQGAGEVALVDTALGTRAARGALELHLAELGLCFQDVKTILLTHHHPDHYGLSGFFEGLGARVFLHEEEFARGHRFWREPEAFAEASWRLFLDHGTPEGALQGIRETVEKTRERVHPPQNPLPLRDGEALEVAGKRLRVLWTPGHADGHAAFYLEEEGVLLAGDALLEKVSPNVGLWAYTRENPLKDFLRSLDRLADLGARVAYAGHFGPIADVRQRAEELKAHHQARLEALLALLDGPKTAWELSLHLFPQELDPAGRRFAFAETLAHLEYLREEGAVGRGGPPYRYFRR | not failed |
| MKAPEGIACGKRQLVVSDTGGGRLLSYSIENGSVRGGTEIKAEQVPYPTKVQLTSKGEILVIDGKLRRIAHFSPEGSFAGYLDLKGVPAPATIAPRGIRVDDKDNIHILDIFGARVIVTDAAGTFQSQMPFPEGYRFISDLAVSASGTTLLLDSVASRVYAAARGETAFKPLTDGMKEYLQFPTSIATDKQGKIFILDQTGNAVVTLGQDGSFQGRQLNIGWKNSFLHYPSQLCISEENDIDVVIADRNNNRIQVFRVVRLEHHHHHH | failed |
| MKAPLVSIIIPVWNLWELTCACLDSIRAHTPGNAVEVIVVDNGSDDTTATALAPTGEGLFGARFRRIRLETNRGFAVACNLGAAKAQGTYLLLLNNDTVLSPGWLPPLLREFDDEPRTGAAGPLLVYPDSGRVQHCGIAFAPTLQTEHLYANFPATHPAVRARRTLQAITGAAMLLPTALFRQCGGFHEGYKNGCEDLELCCRIREQGLRLAVVPESLVAHHESRTPGRKEHDAANATLLNRRCSGCFGPDLHRHALRDGFAIALTPWLDTYLTLPPGREAALTREHITDFDPGRCWETLQGEPLWHGGYEMLCSILDEAGRHAESAGVRLLQAGFFPTLPGFRQLARSAALSGNDELARQAAEKMQHIGGILEDPEPLVTRARGLVRWARRAGEPAVEALYTGWLTDIGLSADDLEHHHHHH | not failed |
| MKAPRLIGAEIFRHSSYGRWHPLRVPRVSTVMDLSRAMGWLPPAQFITAPRAKPKALLAWHTADYIAALQRVEATQEATPHDTQRHDIGTVTNPVYPEIFRRPATAAGGSLLAGELLREGGIIYNPPGGTHHGMPDRANGFCYLNDPVLAMLSLRRNGVQRIAYVDIDAHHCDGVAAGFHGDPQCLMISVHEEGLWPRTGLLEDTAGGAGLNLPVPRGLNDTEMAYIRDRLILPQVEAFRPDAVVLLCGADGVEEDPLAHLCLSNNAHWAVTKALMGIAPRMLVLGGGGYNPWSVGRLWTGVWATLNGHDIPDRLPPEAQAVLRALRFEGNRRGKNPPEHWFTTLRDAPRPGPVRSDITDRVAELSRKAARLRLDH | failed |
| MKAVIVYASVHHGNTKKIAEAMASVISADVIDVTRKIKPDLSGYDVIGFASGVYFHTFHERIKKCIEENLFSKGQKVFLVATCGLGYRDYTKGIKDILAKKHVSFIGNFQCRGWDTYGIFGKIGGIAKKHPNDRDLKEAQQFVLKTVCEKTIDDVALLG | failed |
| MKAVRRQISRFSAHRWWSIVLKEFLQLRRDRVTFGMMIGIPIIQLLLFGFAINSDPRHMPTAVIVAEHSDFSRTFIAALDNTTYFKVVRTMPDEASGREALMRGDVQFVVSIPADFSRRLLHGDRPSILVEADATDPSATGQAIAALAQLPATVARIDLKGALAPLAGGQPAFDVNVHRLYNPEGITQYNIVPGLMGTILTMTMVMMTGLAMTRERERGTMENLLATPVQPLEVISGKIIPYIFIGLIQATIILLAAHFVFGVPFVGSPVAVYLAALLFIAANLTVGITLSSLAANQLQALQLTFFYFLPNILLSGFMFPFAGMPTWAQWIGNVLPMTYFNRMIRSIMLKGSGWIELWPNVWPVALFTVIVLTIAVRFYKRTLD | failed |
| MKAVVMAGGEGTRLRPMTANQPKPLLPVVNRPIMEHVLRLLKRHGFEDTVVTVQFLATLIRNYFGDGEELGMSLRYVAEEVPLGTAGSVKNAEEHLRGEPFIVISGDALTDIDLTDMVRFHRENGALVTIGLKRVANPLEFGIIIVDDNGRIQRFLEKPTWGQVFSDTVNTGIYIMEPEVLDHVAPGENVDWSGDVFPKLLKAGAPLYGYIADGYWEDVGTHESYLRAQADVLSGKVDVEIDGFEVSPGIWVAEGAEVDPEAVLKGPLYIGDYAKVEPGAELREFTVLGSNVVVRSEAFLHRAVVHDNVYVGTRANLRGCVVGKNTDIMAGVRIEEGTVVGEECVLESEAYLANNIKVYPFKTIEAGAVVNTNVIWESKGQRSLFGPRGVSGLINVEITPELAVRLASAYATTLKKGAVVTTARDASRAARTLKRAVISALTAAAINVQDLEATPLPLARFHTSQPGLSGGIALRTTPGDPQSVDIVFLDSSGADLSPAAQRKLERVFSRQEYRRAFPGEIAELSFPSRSVEAYTRELLQSIDLSGVAEANLKVVVDCAGGTGSLILPALLSQIDADVLTVNNRLDEASPTDTPAKRTRDLQRLGELVASARADFGVRFDPVGERIQLVDGSGTLVDDERALLVVLDLVAAERQGGRVALPVTTTRVAEQVANRHGVDVQWTPTSLDALTKAALADDIIFAADGRGGFILPEFSRTCDGIAAFVRLIGLVARTKMSLSQIDQRIPQAHLLRRSVPTPWAVKGSVMREVVEAAQGREIDTTDGVRVIEPDGSWALVLPDTAEAVTHLWAEGPDDETAQRLLEEWSAVVERAEG | failed |
| MKAYQNILVAIDGSGADDALIEQVSALAAPLGSRVHLLHVVHSHTIDQERALREQAGEFLERYRAAMQQQGIEAEVLIRSGEPDREILKEIEERRYDLLAMAAHGHRLFSRLLFGSVSRALRNKIDIPLLLVRGEAR | failed |
| MKDEVQLKKYLPSLIFAIILPVIAYLFLKMLGNSDTLALGIATAFPVVHMLWSLIRKKELNPVSLVAIIGFLISLLAVYLTHGNNLAFKLWHPILTAAIGTIFLLSVLLNRPLLELASEGENHRKMLIMTLFMGLVFIFHALSVILLAFFVETTAFVLLSKVIDFSAVGVLVLGLAFLRKKLN | failed |

Source: a protein production outcome set (Wang et al. 2014)
